Series [1] relates to Nc1ccn([C@H]2C[C@H](O)[C@@H](CO)O2)c(=O)n1. Nature of the series: purified protein. The note with it: PBS, 37 °C, 10 min, 4 nM enzyme. The format is biochemical, Mesomycoplasma hyorhinis.
In series [2] the test system is Nc1ccn([C@@H]2O[C@H](CO)[C@@H](O)C2(F)F)c(=O)n1. Nature of the series: purified protein. The format is biochemical, Mesomycoplasma hyorhinis. The note with it: PBS, 37 °C, 10 min, 4 nM enzyme, fit up to 30 mM substrate, second KM at very high concentrations not determined.

What is called Km is the substrate concentration at which the rate is half of its maximum. What is called kcat is the number of substrate molecules converted per active site and unit of time at saturation. Broadly, the kcat/Km is the turnover number divided by the Michaelis constant. Turning to “CDAHyor (M. hyorhinis cytidine deaminase) (Mesomycoplasma hyorhinis MCLD)”, in series [1], the Km came out at 2.586 ± 0.114 mM, the kcat came out at 127 ± 2 s⁻¹ and the catalytic efficiency (kcat/Km) worked out at 49000 M⁻¹ s⁻¹. Moreover, in series [2], the Km is 9.064 ± 1.487 mM, the catalytic constant (kcat) turned out to be 105 ± 7 s⁻¹ and the kcat/Km worked out at 12000 M⁻¹ s⁻¹.

These data come from publication PMC4541722.
